Results reported in paper PMC10164552, “PBRM1 bromodomains associate with RNA to facilitate chromatin association”.

What was measured:
PBRM1 BD4 [1] = molecular target: T1, PBRM1 BD4 (UniProt Q86U86 496-637); experiment: NMR titration (1H-15N HSQC); NMR: 0.1 mM 15N-BD, 50 mM K phosphate pH 7.0, 50 mM KCl, 2 mM DTT, 2 mM EDTA, 7% D2O, 25 C; EMSA: 50 mM K phosphate pH 7.0, 10 mM KCl, 2 mM DTT, 2 mM EDTA, 5% sucrose, on ice 1 h, gel at 4 C; conditions: protein: recombinant, tags: His tag, TEV-cleaved
PBRM1 BD2 [2] = molecular target: T2, PBRM1 BD2 (UniProt Q86U86 178-291); experiment: as above; conditions: protein: recombinant, tags: His tag, TEV-cleaved
PBRM1 BD4 [3] = molecular target: T1, PBRM1 BD4; experiment: NMR titration (1H-15N HSQC); Kd only in figure, stated similar to other dsRNAs; NMR: 0.1 mM 15N-BD, 50 mM K phosphate pH 7.0, 50 mM KCl, 2 mM DTT, 2 mM EDTA, 7% D2O, 25 C; EMSA: 50 mM K phosphate pH 7.0, 10 mM KCl, 2 mM DTT, 2 mM EDTA, 5% sucrose, on ice 1 h, gel at 4 C; conditions: protein: recombinant, tags: His tag, TEV-cleaved
PBRM1 BD2 [4] = molecular target: T2, PBRM1 BD2; experiment: as above; conditions: protein: recombinant, tags: His tag, TEV-cleaved, hairpin
PBRM1 BD2 SKY_AAA = PBRM1 BD2 SKY_AAA (UniProt Q86U86 178-291, S275A;K277A;Y281A); experiment: NMR titration (1H-15N HSQC); NMR: 0.1 mM 15N-BD, 50 mM K phosphate pH 7.0, 50 mM KCl, 2 mM DTT, 2 mM EDTA, 7% D2O, 25 C; EMSA: 50 mM K phosphate pH 7.0, 10 mM KCl, 2 mM DTT, 2 mM EDTA, 5% sucrose, on ice 1 h, gel at 4 C; conditions: protein: recombinant; tags: His tag, TEV-cleaved; hairpin, UUCG loop
PBRM1 BD4 KRK_AAA = PBRM1 BD4 KRK_AAA (UniProt Q86U86 496-637, K511A;R512A;K513A); experiment: as above; conditions: protein: recombinant; tags: His tag, TEV-cleaved; hairpin, UUCG loop
Chain of PBRM1 BD4 KRK_AAA (Q86U86 496-637 K511A/R512A/K513A): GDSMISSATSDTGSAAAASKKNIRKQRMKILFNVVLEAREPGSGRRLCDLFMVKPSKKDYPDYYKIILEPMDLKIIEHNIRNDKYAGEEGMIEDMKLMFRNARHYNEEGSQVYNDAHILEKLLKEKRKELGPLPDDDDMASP

T1 sequence (Q86U86 496-637): as the sequence (Q86U86 496-637 K511A/R512A/K513A) above, with A16K, A17R, A18K counted along it
T2 sequence (Q86U86 178-291): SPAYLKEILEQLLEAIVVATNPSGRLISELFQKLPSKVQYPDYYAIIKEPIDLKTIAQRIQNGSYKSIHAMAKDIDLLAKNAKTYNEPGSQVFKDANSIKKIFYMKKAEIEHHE
Chain of PBRM1 BD2 SKY_AAA (Q86U86 178-291 S275A/K277A/Y281A): as the sequence (Q86U86 178-291) above, with S98A, K100A, Y104A counted along it

B1: ssRNAI poly-U 13 nt (ssRNA)
RNA: UUUUUUUUUUUUU
PBRM1 BD4 [1]
  Kd: 320 ± 140 µM
PBRM1 BD2 [2]
  Kd: 350 ± 80 µM

B2: dsRNAII stem-loop (structured_RNA)
RNA: GGCAUCGUGCUUCGGCACGAUGCC
PBRM1 BD4 [3]; hairpin, UUCG loop
  binding result: binds
PBRM1 BD2 [4]; UUCG loop
  binding result: binds

B3: dsDNA 11 bp (dsDNA)
DNA 1: CGTAGACAGCT
DNA 2: AGCTGTCTACG
PBRM1 BD4 [1]; blunt
  Kd: 500 ± 270 µM
PBRM1 BD2 [2]; blunt
  Kd: 910 ± 380 µM

B4: dsRNAIV (no loop) (dsRNA)
RNA 1: GGCAUCGUGC
RNA 2: GCACGAUGCC
PBRM1 BD4 [3]; blunt
  binding result: binds

B5: dsRNAI stem-loop 30 nt (structured_RNA)
RNA: GCGUAGACAGCUGUUCGCAGCUGUCUACGC
PBRM1 BD2 SKY_AAA
  Kd: 200 ± 70 µM
PBRM1 BD4 [1]; hairpin, UUCG loop
  Kd: 120 ± 20 µM
PBRM1 BD2 [2]; hairpin, UUCG loop
  Kd: 25 ± 8 µM
PBRM1 BD4 KRK_AAA
  Kd: 1020 ± 40 µM

B6: ssDNA (ssDNA)
DNA: CGTAGACAGCT
PBRM1 BD4 [1]
  Kd: 2970 ± 140 µM
PBRM1 BD2 [2]
  Kd: 130 ± 30 µM

B7: dsRNAIII stem-loop (structured_RNA)
RNA: GGCAUCGUGCAUCAGAAUGGCACGAUGCC
PBRM1 BD4 [3]; hairpin
  binding result: binds
PBRM1 BD2 [4]
  binding result: binds
